Measurements published in US20240117018A1.

What was measured:
Test in all cases: cell-based or functional assay
[1] = target: HIV-0013095-2.11 Env pseudovirus (HIV-1)
[2] = target: TRO.11 Env pseudovirus (HIV-1)
[3] = target: 3365.v2.c2 Env pseudovirus (HIV-1)
[4] = target: Ce2060_G9 Env pseudovirus (HIV-1)
[5] = target: CNE17 Env pseudovirus (HIV-1)
[6] = target: 9004SS_A3_4 Env pseudovirus (HIV-1)
[7] = target: PVO.4 Env pseudovirus (HIV-1)
[8] = target: 191084 B7-19 Env pseudovirus (HIV-1)
[9] = target: HIV-001428-2.42 Env pseudovirus (HIV-1)
[10] = target: Ce704809221_1B3 Env pseudovirus (HIV-1)
[11] = target: CNE52 Env pseudovirus (HIV-1)
[12] = target: REJO4541.67 Env pseudovirus (HIV-1)
[13] = target: 6240_08_TA5_4622 Env pseudovirus (HIV-1)
[14] = target: MuLV envelope (negative control pseudovirus) (MuLV)
[15] = target: ZM109F.PB4 Env pseudovirus (HIV-1)
[16] = target: THRO4156.18 Env pseudovirus (HIV-1)
[17] = target: CAP45.2.00.G3 Env pseudovirus (HIV-1)
[18] = target: WEAU_d15_410_787 Env pseudovirus (HIV-1)
[19] = target: 1054_07_TC4_1499 Env pseudovirus (HIV-1)
[20] = target: WITO4160.33 Env pseudovirus (HIV-1)
[21] = target: ZM233M.PB6 Env pseudovirus (HIV-1)
[22] = target: RHPA4259.7 Env pseudovirus (HIV-1)
[23] = target: 0260.v5.c36 Env pseudovirus (HIV-1)
[24] = target: 6244_13_B5_4576 Env pseudovirus (HIV-1)
[25] = target: SC05_8C11_2344 Env pseudovirus (HIV-1)
[26] = target: Ce2010_F5 Env pseudovirus (HIV-1)
[27] = target: 191955_A11 Env pseudovirus (HIV-1)
[28] = target: Ce1172_H1 Env pseudovirus (HIV-1)
[29] = target: Du172.17 Env pseudovirus (HIV-1)
[30] = target: 3415.v1.c1 Env pseudovirus (HIV-1)
[31] = target: CNE30 Env pseudovirus (HIV-1)
[32] = target: CAP210.2.00.E8 Env pseudovirus (HIV-1)
[33] = target: QH0692.42 Env pseudovirus (HIV-1)
[34] = target: 1012_11_TC21_3257 Env pseudovirus (HIV-1)
[35] = target: Q769.d22 Env pseudovirus (HIV-1)

B1: N49P22 (antibody, V domains shown)
V domain 1: HIQLLQSGPQVKKSGDTVRISCETSGYNFVDSRIHWVRQTPEKRLRWMGWINPLQGGVNYAPEFQGRIRMTRDTFIDTVYVDLSGLTPADTAYYYCARGIDGKSYPFHFWGHGTRVTVFS
V domain 2: RFALTQPASVSGSPGQTITITCAGGSVSWFHFPPGKTPRLIIYESSKRPSGVSPRFSGSQSGSTASLIISGLQSDDEGTYFCSILEFFGRGTLVTVLS
IC50 [1]: > 50 µg/mL | IC80 [1]: > 50 µg/mL | MPI [1]: 9 | IC50 [2]: 0.283 µg/mL | IC80 [2]: 1.36 µg/mL | MPI [2]: 99 | IC50 [3]: 0.254 µg/mL | IC80 [3]: 0.857 µg/mL | MPI [3]: 98 | IC50 [4]: > 50 µg/mL | IC80 [4]: > 50 µg/mL | MPI [4]: 19 | IC50 [5]: 46.3 µg/mL | IC80 [5]: > 50 µg/mL | MPI [5]: 53 | IC50 [6]: > 50 µg/mL | IC80 [6]: > 50 µg/mL | MPI [6]: 42 | IC50 [7]: 0.433 µg/mL | IC80 [7]: 1.49 µg/mL | MPI [7]: 100 | IC50 [8]: 0.343 µg/mL | IC80 [8]: 1.64 µg/mL | MPI [8]: 98 | IC50 [9]: 0.73 µg/mL | IC80 [9]: 7.1 µg/mL | MPI [9]: 91 | IC50 [10]: 15.8 µg/mL | IC80 [10]: > 50 µg/mL | MPI [10]: 60 | IC50 [11]: 1.7 µg/mL | IC80 [11]: 10 µg/mL | MPI [11]: 91 | IC50 [12]: 0.792 µg/mL | IC80 [12]: 12.1 µg/mL | MPI [12]: 84 | IC50 [13]: 2.33 µg/mL | IC80 [13]: 9.76 µg/mL | MPI [13]: 93 | IC50 [14]: > 50 µg/mL | IC80 [14]: > 50 µg/mL | MPI [14]: 8 | IC50 [15]: > 50 µg/mL | IC80 [15]: > 50 µg/mL | MPI [15]: 1 | IC50 [16]: > 50 µg/mL | IC80 [16]: > 50 µg/mL | MPI [16]: 32 | IC50 [17]: > 50 µg/mL | IC80 [17]: > 50 µg/mL | MPI [17]: 0 | IC50 [18]: 1.54 µg/mL | IC80 [18]: > 50 µg/mL | MPI [18]: 76 | IC50 [19]: 0.654 µg/mL | IC80 [19]: 2.89 µg/mL | MPI [19]: 100 | IC50 [20]: 4.86 µg/mL | IC80 [20]: > 50 µg/mL | MPI [20]: 74 | IC50 [21]: > 50 µg/mL | IC80 [21]: > 50 µg/mL | MPI [21]: 2 | IC50 [22]: 0.637 µg/mL | IC80 [22]: 5.6 µg/mL | MPI [22]: 92 | IC50 [23]: 1.67 µg/mL | IC80 [23]: 14.4 µg/mL | MPI [23]: 93 | IC50 [24]: 0.565 µg/mL | IC80 [24]: 2.48 µg/mL | MPI [24]: 97 | IC50 [25]: 0.251 µg/mL | IC80 [25]: 2.16 µg/mL | MPI [25]: 97 | IC50 [26]: 2.05 µg/mL | IC80 [26]: 11.7 µg/mL | MPI [26]: 93 | IC50 [27]: > 50 µg/mL | IC80 [27]: > 50 µg/mL | MPI [27]: 9 | IC50 [28]: > 50 µg/mL | IC80 [28]: > 50 µg/mL | MPI [28]: 0 | IC50 [29]: > 50 µg/mL | IC80 [29]: > 50 µg/mL | MPI [29]: 4 | IC50 [30]: 0.198 µg/mL | IC80 [30]: 1.41 µg/mL | MPI [30]: 96 | IC50 [31]: > 50 µg/mL | IC80 [31]: > 50 µg/mL | MPI [31]: 30 | IC50 [32]: > 50 µg/mL | IC80 [32]: > 50 µg/mL | MPI [32]: 6 | IC50 [33]: 0.592 µg/mL | IC80 [33]: 2.02 µg/mL | MPI [33]: 100 | IC50 [34]: 15.7 µg/mL | IC80 [34]: > 50 µg/mL | MPI [34]: 53 | IC50 [35]: 0.043 µg/mL | IC80 [35]: 0.259 µg/mL | MPI [35]: 100
